Assays:
[1] = biological target: full length human TL1A expressed on HEK293 cells (human) (UniProt O95150); test: flow, HEK293/hTL1A, isotype control 1 ug/ml in place of anti-hTL1A (background; same value as r16c2, printed under column 1742P)
[2] = biological target: full length human TL1A expressed on HEK293 cells (human) (UniProt O95150); test: flow, HEK293/hTL1A, isotype control in place of anti-hTL1A (background; columns c2-c7)
[3] = biological target: full length human TL1A expressed on HEK293 cells (human) (UniProt O95150); test: flow, HEK293/hTL1A, isotype control in place of anti-hTL1A (background; columns c8-c9)
[4] = biological target: full length human TL1A expressed on HEK293 cells (human) (UniProt O95150); test: flow, HEK293/hTL1A, isotype control 1 ug/ml in place of anti-hTL1A (background; same value as r16c2, printed under column 1817N)
[5] = biological target: full length human TL1A expressed on HEK293 cells (human) (UniProt O95150); test: flow, HEK293/hTL1A, isotype control 1 ug/ml in place of anti-hTL1A (background; same value as r16c2, printed under column 1725P)
[6] = biological target: full length human TL1A expressed on HEK293 cells (human) (UniProt O95150); test: flow, HEK293/hTL1A, isotype control 1 ug/ml in place of anti-hTL1A (background; same value as r16c2, printed under column 1804N)
[7] = biological target: full length human TL1A expressed on HEK293 cells (human) (UniProt O95150); test: flow, HEK293/hTL1A, isotype control 1 ug/ml in place of anti-hTL1A (background; same value as r16c8, printed under column 1745P)
[8] = biological target: full length human TL1A expressed on HEK293 cells (human) (UniProt O95150); test: flow, HEK293/hTL1A, isotype control 1 ug/ml in place of anti-hTL1A (background; same value as r16c2, printed under column 1805N)

Measured: MFI

full length human TL1A expressed on HEK293 cells (human), sequence (O95150 whole entry): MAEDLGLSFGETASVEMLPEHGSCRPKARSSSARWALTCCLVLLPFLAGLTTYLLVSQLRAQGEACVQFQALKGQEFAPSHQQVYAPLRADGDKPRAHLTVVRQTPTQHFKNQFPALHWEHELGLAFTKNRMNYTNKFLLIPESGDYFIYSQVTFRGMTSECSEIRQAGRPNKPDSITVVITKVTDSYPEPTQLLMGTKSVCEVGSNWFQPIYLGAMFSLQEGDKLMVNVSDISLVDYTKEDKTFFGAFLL

negative isotype control antibody (human IgG4)
17.9: [3] | [7]
27.5: all other assays above

Source: patent US20140120109A1
